In US20090053807 (published 2009):
Positions of bridges follow the written chain, without caps; N, C: chain ends. Non-standard residues stand in square brackets, D forms with d. No end group written: not given here. Hyp = O=C(O)[C@@H]1C[C@@H](O)CN1; Tic = O=C(O)[C@@H]1Cc2ccccc2CN1; Abu = CC[C@H](N)C(=O)O

B1: S371 (RP9) (peptide)
chain: GSLDESFYDWFERQLGKK
B2: E8 (D120) (peptide)
chain: GGTVWPGYEWLRNA
B3: H2C (D117) (peptide)
chain: FHENFYDWFVQRVSKK
B4: S317 (peptide)
chain: WFGYAWLS
B5: S184 (peptide)
chain: Ac-FYDWF
B6: S215 (peptide)
chain: AFYGWFAKK
B7: S223 (peptide)
chain: FHENFYDWAVRQVSKK
B8: S113 (peptide)
chain: AHENFYDWFVRQVSKK
B9: S403 (peptide)
chain: ESFYDWF
B10: S397 (peptide)
chain: GSLDESFYDWFE
B11: S114 (peptide)
chain: [dF][dH][dE][dN][dF][dY][dD][dW][dF][dV][dR][dQ][dV][dS][dK][dK]
B12: S108 (peptide)
chain: FHENFYDWFVAQVSKK
B13: S182 (peptide)
chain: AFYDWF
B14: S183 (peptide)
chain: FYDWFA
B15: S289 (peptide)
chain: DPFYQGLWEWLRESGEE
B16: S181 (peptide)
chain: AFYDWFA
B17: S401 (peptide)
chain: ESFYDWFER
B18: S214 (peptide)
chain: AFYEWFAKK
B19: S180 (peptide)
chain: AFYDWFAK
B20: S398 (peptide)
chain: GSLDESFYDWF
B21: S366 (peptide)
chain: PLRESRNFYDWFVQQLE
B22: S219 (peptide)
chain: FHENAYDWFVRQVSKK
B23: S402 (peptide)
chain: ESFYDWFE
B24: S216 (peptide)
chain: AFYKWFAKK
B25: S122 (peptide)
chain: HPTSKEIYAKLLK
B26: S222 (peptide)
chain: FHENFYDAFVRQVSKK
B27: S167 (peptide)
chain: AFYDWFAKK
B28: S396 (peptide)
chain: GSLDESFYDWFER
B29: S282 (peptide)
chain: HLSVGEELSWWVALLGQWAR
B30: S278 (peptide)
chain: GFREGQRWYWFVAQVT
B31: S165 (peptide)
chain: FYDWF
B32: S266 (peptide)
chain: [Abu]CLEE[dW]GASL[Tic]QCSG
modifications: disulfide 2-13 (inferred)
B33: S220 (peptide)
chain: FHENFADWFVRQVSKK
B34: S166 (peptide)
chain: FYDWFKK
B35: S118 (peptide)
chain: SDGEYNAIELLS
B36: S283 (peptide)
chain: APVSTEELRWGALLFGQWAG
B37: S284 (peptide)
chain: ALEEEWAWVQVRSIRSGLPL
B38: S268 (peptide)
chain: RD[Hyp]FYDWEDD[dI]

target: mIR (human, UniProt P06213); assay: FP vs FITC-RP9

**Q.** B1 was tested. Which IC50 did it give?
**A.** Its IC50 is 49 nM.

**Q.** How did the IC50 turn out when B2 was run?
**A.** Its IC50 is over 100000 nM.

**Q.** B3 was tested. Which IC50 did it give?
**A.** The IC50 was 770 nM.

target: T1, human insulin receptor (HIR) (human, UniProt P06213); assay: competition

**Q.** How did the Kd turn out when B4 was run?
**A.** Its Kd is over 20 µM.

**Q.** For B5, which Kd is on record?
**A.** The Kd was over 20 µM.

**Q.** With B6 as the binder, how does the Kd read?
**A.** Its Kd is over 20 µM.

**Q.** B7 was tested. Which Kd did it give?
**A.** Its Kd is over 20 µM.

**Q.** How did the Kd turn out when B8 was run?
**A.** The Kd was 5.9 µM.

**Q.** How did the Kd turn out when B9 was run?
**A.** Its Kd is over 20 µM.

**Q.** With B10 as the binder, how does the Kd read?
**A.** Its Kd is over 20 µM.

**Q.** Which Kd does the source give for B11 here?
**A.** The Kd was 8.3 µM.

**Q.** B12 was tested. Which Kd did it give?
**A.** Its Kd is 7.5 µM.

**Q.** With B13 as the binder, how does the Kd read?
**A.** The Kd was over 20 µM.

**Q.** How did the Kd turn out when B14 was run?
**A.** The Kd was over 20 µM.

**Q.** With B15 as the binder, how does the Kd read?
**A.** Its Kd is over 20 µM.

**Q.** B16 was tested. Which Kd did it give?
**A.** Its Kd is over 20 µM.

**Q.** How did the Kd turn out when B17 was run?
**A.** The Kd was over 20 µM.

**Q.** With B18 as the binder, how does the Kd read?
**A.** Its Kd is over 20 µM.

**Q.** How did the Kd turn out when B19 was run?
**A.** The Kd was over 20 µM.

**Q.** With B20 as the binder, how does the Kd read?
**A.** Its Kd is over 20 µM.

**Q.** With B21 as the binder, how does the Kd read?
**A.** The Kd was 3.7 µM.

**Q.** B22 was tested. Which Kd did it give?
**A.** Its Kd is over 20 µM.

**Q.** B23 was tested. Which Kd did it give?
**A.** Its Kd is over 20 µM.

**Q.** For B24, which Kd is on record?
**A.** The Kd was over 20 µM.

**Q.** How did the Kd turn out when B25 was run?
**A.** The Kd was 93 µM.

**Q.** With B26 as the binder, how does the Kd read?
**A.** Its Kd is over 20 µM.

**Q.** With B27 as the binder, how does the Kd read?
**A.** Its Kd is over 20 µM.

**Q.** For B28, which Kd is on record?
**A.** Its Kd is over 20 µM.

**Q.** B29 was tested. Which Kd did it give?
**A.** The Kd was over 20 µM.

**Q.** Which Kd does the source give for B30 here?
**A.** The Kd was over 20 µM.

**Q.** Which Kd does the source give for B31 here?
**A.** Its Kd is over 20 µM.

**Q.** Which Kd does the source give for B32 here?
**A.** The Kd was over 20 µM.

**Q.** Which Kd does the source give for B33 here?
**A.** The Kd was over 20 µM.

**Q.** B34 was tested. Which Kd did it give?
**A.** Its Kd is over 20 µM.

**Q.** For B35, which Kd is on record?
**A.** The Kd was 2.4 µM.

**Q.** For B36, which Kd is on record?
**A.** The Kd was over 20 µM.

**Q.** Which Kd does the source give for B37 here?
**A.** Its Kd is over 20 µM.

**Q.** For B38, which Kd is on record?
**A.** The Kd was 0.45 µM.

target: T1, human insulin receptor (HIR); assay: competition; remark: another data set of the same source

**Q.** How did the Kd turn out when B28 was run?
**A.** Its Kd is over 20 µM.

target: T1, human insulin receptor (HIR); assay: competition; remark: another data set of the same source

**Q.** How did the Kd turn out when B28 was run?
**A.** The Kd was over 20 µM.
